Columns and labels:
[1] = target: SbcC;SbcD H84Q H84Q (Escherichia coli;Escherichia coli) (UniProt P13458+P0AG76); experiment: fluorescence anisotropy; conditions: 5 mM Mg2+, 1 mM Mn2+; 25 mM Tris pH 7.5, 50 mM KCl, 5 mM MgCl2, 1 mM MnCl2, 1 mM DTT, 1 mM ATP where stated; 5 nM DNA, 2-1000 nM SbcCD, 20 min at 25 C
[2] = tested on: T1, Nc1ncnc2c1ncn2[C@@H]1O[C@H](COP(=O)(O)OP(=O)(O)OP(=O)(O)O)[C@@H](O)[C@H]1O; experiment: NADH-coupled (PK/LDH) ATPase assay, Michaelis-Menten fit; format: biochemical, Escherichia coli; conditions: dsDNA present, 5 mM MgCl2, 1 mM MnCl2, 50 mM KCl, 25 mM Tris pH 7.5, 37°C
T1 construct: full-length SbcC (pET28) and SbcD with C-terminal His6 (pET21b), co-expressed in E. coli BL21(DE3); SbcC2-SbcD2 heterotetramer; printed 4M0V is the SbcD dimer structure only; with Nuclease SbcCD subunit D

Substance | Kd [1] [nM] | Km [2] [µM]
60 bp DNA, GC-rich positions 15-29 | 132 | 
SbcCD (Escherichia coli K-12) |  | 46 ± 6
60 bp DNA, AT-rich positions 15-29 | 45 | 

Source: article PMC6265447, “The bacterial Mre11–Rad50 homolog SbcCD cleaves opposing strands of DNA by two chemically distinct nuclease reactions” (Nucleic Acids Research, 2018)
